Biological target: T1, RIG-I (recombinant) (human? (GeneID 23586), UniProt O95786 1-925)
T1 sequence: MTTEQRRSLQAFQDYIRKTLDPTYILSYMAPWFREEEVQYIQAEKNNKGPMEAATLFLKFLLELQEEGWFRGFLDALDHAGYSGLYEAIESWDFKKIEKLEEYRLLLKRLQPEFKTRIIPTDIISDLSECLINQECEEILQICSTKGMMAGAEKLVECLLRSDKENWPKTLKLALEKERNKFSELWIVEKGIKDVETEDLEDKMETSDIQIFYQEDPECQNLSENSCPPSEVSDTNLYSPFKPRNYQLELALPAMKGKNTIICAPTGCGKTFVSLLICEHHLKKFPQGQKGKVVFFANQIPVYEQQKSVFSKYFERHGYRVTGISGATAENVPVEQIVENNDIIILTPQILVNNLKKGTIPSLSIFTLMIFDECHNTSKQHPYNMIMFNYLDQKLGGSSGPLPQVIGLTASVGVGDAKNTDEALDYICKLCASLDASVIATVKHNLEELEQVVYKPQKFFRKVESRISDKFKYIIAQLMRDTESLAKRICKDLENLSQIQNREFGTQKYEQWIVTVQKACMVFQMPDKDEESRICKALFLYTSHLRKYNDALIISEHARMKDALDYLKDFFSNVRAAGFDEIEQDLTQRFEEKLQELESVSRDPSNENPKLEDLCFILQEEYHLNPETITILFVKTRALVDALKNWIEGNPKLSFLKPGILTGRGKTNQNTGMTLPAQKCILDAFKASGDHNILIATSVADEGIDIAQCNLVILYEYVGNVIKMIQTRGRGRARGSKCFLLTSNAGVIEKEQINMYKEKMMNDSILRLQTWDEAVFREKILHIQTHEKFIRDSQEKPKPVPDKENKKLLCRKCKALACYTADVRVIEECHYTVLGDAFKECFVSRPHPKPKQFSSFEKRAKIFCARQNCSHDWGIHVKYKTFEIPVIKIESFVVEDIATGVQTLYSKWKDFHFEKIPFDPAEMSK
Experiment: EMSA

B1: 5'-pppA synthetic 24 bp dsRNA (dsRNA)
RNA 1: AGCAAAAGCAGGGUGACAAAGACA
RNA 2: UGUCUUUGUCACCCUGCUUUUGCU
modifications: 5'-ppp on sense strand only
- Kd: 0.4 nM

— doi:10.1101/2023.12.22.573000
